Results published in patent publication US20160017031A1.

Experiments:
[1] = target: HLA-A2 (HLA-A*0201) class I molecule without a defined test peptide (human); experiment: cell-based or functional assay
[2] = target: GVL peptide-HLA-A2 (hCG beta 47-55 peptide … in HLA-A2 with beta-2 microglobulin) (human); experiment: flow cytometry, T2 cells pulsed with 50 to 0.1 µg/ml GVL peptide
[3] = target: HLA-A2 (HLA-A*0201) class I molecule without a defined test peptide (human); experiment: flow cytometry, unpulsed T2 cells, 1 µg per stain
[4] = target: GVL peptide-HLA-A2 (hCG beta 47-55 peptide … in HLA-A2 with beta-2 microglobulin) (human); experiment: flow cytometry, GVL-pulsed T2 cells, 1 µg per stain
[5] = target: GVL peptide-HLA-A2 (hCG beta 47-55 peptide … in HLA-A2 with beta-2 microglobulin) (human); experiment: cell-based or functional assay
[6] = target: TMT peptide-HLA-A2 (hCG beta 40-48 peptide … in HLA-A2 with beta-2 microglobulin) (human); experiment: cell-based or functional assay
[7] = target: GVL peptide-HLA-A2 (hCG beta 47-55 peptide … in HLA-A2 with beta-2 microglobulin) (human); experiment: flow cytometry, GVL-pulsed T2 cells, 0.01 µg antibody
[8] = target: VLQ peptide-HLA-A2 (hCG beta peptide … in HLA-A2 with beta-2 microglobulin) (human); experiment: flow cytometry, VLQ-pulsed T2 cells, 1 µg per stain
[9] = target: GVL peptide-HLA-A2 (hCG beta 47-55 peptide … in HLA-A2 with beta-2 microglobulin) (human); experiment: flow cytometry, GVL-pulsed T2 cells, 1 µg antibody
[10] = target: TMT peptide-HLA-A2 (hCG beta 40-48 peptide … in HLA-A2 with beta-2 microglobulin) (human); experiment: flow cytometry, TMT-pulsed T2 cells, 1 µg per stain

Row | CDC specific lysis of GVL-pulsed T2 cells [1] | MFI [2] | MFI [3] | MFI [4] | ADCC of MDA-231 cells, human PBMC, E:T 20:1 [5] | ADCC of MDA-MB-231 cells, human PBMC, E:T 30:1, 10 µg/ml 3.2G1 [5] | ADCC of MDA-MB-231 cells, human PBMC, E:T 30:1, 10 µg/ml 3.2G1 (average) [5] | CDC specific lysis of T2 cells pulsed with 50 to 0.1 µg/ml GVL peptide [5] | GVL peptide concentration giving half-maximal CDC lysis [5] | complement-dependent cytolysis (CDC) of TMT-pulsed T2 cells [6] | MFI [7] | MFI [8] | MFI [9] | MFI [10] | Substance
1 | 53 to 70% | 250 to 350 MFI | – | – | – | – | – | – | – | – | – | – | – | – | BB7.2 monoclonal antibody (anti-HLA-A2)
2 | – | 10 to 150 MFI | 9 MFI | 141 MFI | 6.4 to 13.4% | 6.8 to 9.6% | 8.7% | 6 to 73% | 6 µg/mL | 2% | 14.3 MFI | 7.3 MFI | 388 MFI | 7.5 MFI | RL4B (antibody)
